{"source": "patent US20160030544A1", "about": "(published 2016)", "target": "fHbp v2.22 WT", "test": "SPR"}
{"binder": "fH6-7 (other) TLKPCDYPDIKHGGLYHENMRRPYFPVAVGKYYSYYCDEHFETPSGSYWDHIHCTQDGWSPAVPCLRKCYFPYLENGYNQNYGRKFVQGKSIDVACHPGYALPKAQTTVTCMENGWSPTPRCI", "values": [{"measurement": "Kd", "result": 0.3, "unit": "nM"}]}
